The record followed here is US20100260765A1.

In assay [1] the target is whole KDR-ECD (Cat. # 676490, Calbiochem) (human) (UniProt P35968). Description: ELISA, KDR-ECD coat 5 ug/mL, antibody 0.01 ug/mL.
In assay [2] the target is soluble KDR Ig4-7 domain (human) (UniProt P35968). Description: ELISA, KDR Ig4-7 coat (1:1 diln.), antibody 0.1 ug/mL.
For assay [3] the target is unchanged. Description: ELISA, KDR Ig4-7 coat (1:1 diln.), antibody 0.01 ug/mL. A general note: ELISA stands for enzyme-linked immunosorbent assay.
Assay [4] concerns the target whole KDR-ECD (Cat. # 676490, Calbiochem) (human) (UniProt P35968). Description: ELISA, KDR-ECD coat 5 ug/mL, antibody 0.1 ug/mL.
Assay [5] addresses soluble KDR Ig4-7 domain (human) (UniProt P35968). Description: ELISA, KDR Ig4-7 coat (1:1 diln.), antibody 1 ug/mL.
Assay [6] has as its target whole KDR-ECD (Cat. # 676490, Calbiochem) (human) (UniProt P35968). Description: ELISA, KDR-ECD coat 5 ug/mL, antibody 1 ug/mL.
For a further assay, the target named is KDR (human) (UniProt P35968). Description: cell-based or functional assay.
The target in assay [7] is human KDR (VEGFR2) on cells (human) (UniProt P35968). Description: FACS on HUVEC, control at 2 ug/mL.
Chain of human KDR (VEGFR2) on cells (human) (P35968 20-1356): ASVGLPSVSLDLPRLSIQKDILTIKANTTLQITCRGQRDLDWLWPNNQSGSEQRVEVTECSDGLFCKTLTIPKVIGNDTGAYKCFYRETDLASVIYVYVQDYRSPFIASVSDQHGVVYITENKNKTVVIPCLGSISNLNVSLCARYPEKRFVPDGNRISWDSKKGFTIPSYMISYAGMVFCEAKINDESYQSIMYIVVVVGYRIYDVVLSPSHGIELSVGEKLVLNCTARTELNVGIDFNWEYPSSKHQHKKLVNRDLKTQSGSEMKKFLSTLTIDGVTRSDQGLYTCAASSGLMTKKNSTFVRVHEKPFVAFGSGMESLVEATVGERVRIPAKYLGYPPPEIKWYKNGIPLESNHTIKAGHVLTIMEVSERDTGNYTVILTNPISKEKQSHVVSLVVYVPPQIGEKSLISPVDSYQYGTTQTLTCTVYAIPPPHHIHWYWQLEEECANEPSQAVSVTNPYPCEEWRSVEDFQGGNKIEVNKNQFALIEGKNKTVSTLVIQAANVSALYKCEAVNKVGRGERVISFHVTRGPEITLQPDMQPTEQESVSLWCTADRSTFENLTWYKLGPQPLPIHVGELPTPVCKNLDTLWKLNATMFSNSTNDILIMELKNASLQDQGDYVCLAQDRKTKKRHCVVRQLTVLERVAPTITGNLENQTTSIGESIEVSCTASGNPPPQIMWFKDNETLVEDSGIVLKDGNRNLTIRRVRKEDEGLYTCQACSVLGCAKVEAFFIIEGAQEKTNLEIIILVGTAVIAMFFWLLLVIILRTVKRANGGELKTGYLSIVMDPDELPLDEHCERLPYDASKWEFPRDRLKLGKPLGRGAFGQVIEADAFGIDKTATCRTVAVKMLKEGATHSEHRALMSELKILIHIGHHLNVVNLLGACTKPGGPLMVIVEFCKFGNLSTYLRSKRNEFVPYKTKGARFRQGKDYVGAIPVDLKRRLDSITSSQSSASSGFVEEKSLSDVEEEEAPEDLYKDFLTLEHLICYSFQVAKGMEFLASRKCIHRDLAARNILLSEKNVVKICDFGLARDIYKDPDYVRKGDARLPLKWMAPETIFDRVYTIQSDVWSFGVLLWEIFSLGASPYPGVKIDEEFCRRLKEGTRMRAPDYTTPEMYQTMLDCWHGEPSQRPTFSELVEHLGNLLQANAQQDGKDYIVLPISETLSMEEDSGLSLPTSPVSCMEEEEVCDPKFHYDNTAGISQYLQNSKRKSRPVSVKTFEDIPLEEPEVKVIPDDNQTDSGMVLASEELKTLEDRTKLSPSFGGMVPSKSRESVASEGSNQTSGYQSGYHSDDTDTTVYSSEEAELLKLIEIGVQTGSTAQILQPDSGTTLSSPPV

Chain of soluble KDR Ig4-7 domain (human) (P35968 328-764): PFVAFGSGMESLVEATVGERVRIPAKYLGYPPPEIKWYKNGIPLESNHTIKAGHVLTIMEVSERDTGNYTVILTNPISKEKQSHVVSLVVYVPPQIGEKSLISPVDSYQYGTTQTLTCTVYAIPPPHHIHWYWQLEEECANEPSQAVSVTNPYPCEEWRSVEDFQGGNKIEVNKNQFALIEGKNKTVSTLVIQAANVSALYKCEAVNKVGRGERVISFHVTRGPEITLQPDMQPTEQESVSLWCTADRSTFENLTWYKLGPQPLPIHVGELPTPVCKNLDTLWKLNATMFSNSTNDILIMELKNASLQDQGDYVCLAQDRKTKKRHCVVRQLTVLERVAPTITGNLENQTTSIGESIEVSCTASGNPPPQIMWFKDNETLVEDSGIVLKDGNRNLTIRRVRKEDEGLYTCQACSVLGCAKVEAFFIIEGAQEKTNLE
Chain of KDR (human) (P35968 20-1356): as the sequence (P35968 20-1356) above
Chain of whole KDR-ECD (Cat. # 676490, Calbiochem) (human) (P35968 20-764): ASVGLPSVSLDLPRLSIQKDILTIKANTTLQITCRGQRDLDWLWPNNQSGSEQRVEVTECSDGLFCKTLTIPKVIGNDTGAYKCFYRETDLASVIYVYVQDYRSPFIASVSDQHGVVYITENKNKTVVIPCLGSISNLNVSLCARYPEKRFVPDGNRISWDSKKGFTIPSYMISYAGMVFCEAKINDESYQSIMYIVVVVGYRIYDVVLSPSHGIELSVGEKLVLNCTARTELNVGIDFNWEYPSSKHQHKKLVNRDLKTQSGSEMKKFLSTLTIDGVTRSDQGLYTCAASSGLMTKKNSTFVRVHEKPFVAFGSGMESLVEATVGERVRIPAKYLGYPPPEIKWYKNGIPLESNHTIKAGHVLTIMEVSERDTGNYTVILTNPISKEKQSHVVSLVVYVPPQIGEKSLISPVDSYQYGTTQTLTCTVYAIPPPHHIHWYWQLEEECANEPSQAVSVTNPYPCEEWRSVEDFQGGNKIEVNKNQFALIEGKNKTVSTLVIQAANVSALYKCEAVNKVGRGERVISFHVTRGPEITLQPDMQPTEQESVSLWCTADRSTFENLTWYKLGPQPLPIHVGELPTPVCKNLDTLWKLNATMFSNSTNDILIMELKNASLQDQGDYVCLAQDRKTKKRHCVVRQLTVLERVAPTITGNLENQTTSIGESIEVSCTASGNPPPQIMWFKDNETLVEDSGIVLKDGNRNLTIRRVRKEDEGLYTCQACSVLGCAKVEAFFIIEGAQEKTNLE

For “IgG1 (Control) (Sigma-Aldrich, Cat. #15154) (antibody)”, the ELISA reading in assay [1] was determined as 0.082; in assay [2] it was 0.097; in assay [3], 0.079; in assay [4] it was 0.087; in assay [5], 0.139; in assay [6], 0.121.

In the assay with KDR (human), IgG2 (antibody) yielded a % of Max VEGF KDR pTyr Activity (at 133 nM antibody concentration), Average of 9%; a % of Max VEGF KDR pTyr Activity (at 133 nM antibody concentration), N = 1 of 6%; a % of Max VEGF KDR pTyr Activity (at 133 nM antibody concentration), N = 2 of 12%.

Consider “IgG4 (Control) (Sigma-Aldrich, Cat. #14639) (antibody)”, for which the ELISA reading in assay [1] was determined as 0.077; in assay [2] it was 0.078; in assay [3], 0.075; in assay [4], 0.078; in assay [5], 0.181; in assay [6], 0.106.

For the substance IgG4 (antibody), in the assay with KDR (human), the % of Max VEGF KDR pTyr Activity (at 133 nM antibody concentration), Average was 8%; the % of Max VEGF KDR pTyr Activity (at 133 nM antibody concentration), N = 1 was determined as 6%; the % of Max VEGF KDR pTyr Activity (at 133 nM antibody concentration), N = 2 stood at 10%.

In assay [7], goat isotype control (antibody) returned an FACS Geometric Mean of 3.28.
